The text below walks through data of patent publication US20250019457A1 (IBIO, published 2025).

Like-named read-outs stand apart in the source and are kept apart here.

By EC50 is commonly meant the concentration that produces a half-maximal response. Low values mean greater potency, high ones weaker potency. The Kd is a measure of binding affinity in units of concentration. The term EC50 (read off the curve) denotes the midpoint of the concentration-response curve. A word on the koff: it is the rate constant with which the complex falls apart. Broadly, the kon is the rate constant with which the complex forms.

The target in assay [1] is T1, human Trop2 on cells (FaDu cells, endogenous; ExpiCHO cells overexpressing human Trop2) (human, UniProt P09758 27-323).
T1 construct: Cell-surface form
T1 sequence: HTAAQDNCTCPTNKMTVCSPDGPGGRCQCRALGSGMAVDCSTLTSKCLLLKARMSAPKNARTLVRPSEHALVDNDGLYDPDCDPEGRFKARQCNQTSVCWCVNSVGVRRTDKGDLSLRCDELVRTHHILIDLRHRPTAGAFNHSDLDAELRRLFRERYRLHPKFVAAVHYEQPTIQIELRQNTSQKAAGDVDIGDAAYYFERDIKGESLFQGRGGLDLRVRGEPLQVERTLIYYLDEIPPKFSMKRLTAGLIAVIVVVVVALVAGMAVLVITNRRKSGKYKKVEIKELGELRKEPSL
The experiment in a line: flow cytometry on FaDu cells (endogenous human Trop2); average of n=1-3 experiments.

The target in assay [2] is T2, cynomolgus/rhesus TROP2 (purified recombinant antigen, Acro Biosystems Cat #TR2-R52H3) (cynomolgus/rhesus, UniProt P09758 27-274 (human entry)).
T2 construct: Bought recombinant protein; also called cyTROP2; cyno/rhesus TROP2
T2 chain: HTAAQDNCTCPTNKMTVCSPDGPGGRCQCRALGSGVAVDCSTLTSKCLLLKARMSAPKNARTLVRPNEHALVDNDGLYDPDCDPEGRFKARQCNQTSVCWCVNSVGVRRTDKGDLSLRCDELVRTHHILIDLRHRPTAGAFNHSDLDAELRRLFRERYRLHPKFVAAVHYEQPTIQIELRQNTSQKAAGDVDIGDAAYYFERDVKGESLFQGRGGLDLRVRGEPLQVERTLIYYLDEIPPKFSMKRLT
The experiment in a line: SPR, Carterra LSA; antibody captured on anti-human IgG, antigen injected; 1:1 fit. (In general: In SPR one partner is held on a chip, and binding of the other changes the refractive index at the surface.)

Assay [3] has as its target T3, human TROP2 (purified recombinant antigen, Acro Biosystems Cat #TR2-H5223) (human, UniProt P09758 27-274).
T3 construct: Bought recombinant protein; also called huTROP2
T3 sequence: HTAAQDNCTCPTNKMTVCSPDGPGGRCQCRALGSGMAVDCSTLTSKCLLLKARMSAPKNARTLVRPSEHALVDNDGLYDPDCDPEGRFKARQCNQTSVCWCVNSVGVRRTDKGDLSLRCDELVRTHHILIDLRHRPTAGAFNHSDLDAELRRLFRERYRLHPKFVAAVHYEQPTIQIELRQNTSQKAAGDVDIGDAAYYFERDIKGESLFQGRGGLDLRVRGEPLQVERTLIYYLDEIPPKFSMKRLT
The assay is described as above.

Assay [4] has as its target T4, mouse TROP2 (purified recombinant antigen, Acro Biosystems Cat #TR2-M52H6) (mouse, UniProt Q8BGV3 25-270).
T4 construct: Bought recombinant protein; also called msTROP2
T4 sequence: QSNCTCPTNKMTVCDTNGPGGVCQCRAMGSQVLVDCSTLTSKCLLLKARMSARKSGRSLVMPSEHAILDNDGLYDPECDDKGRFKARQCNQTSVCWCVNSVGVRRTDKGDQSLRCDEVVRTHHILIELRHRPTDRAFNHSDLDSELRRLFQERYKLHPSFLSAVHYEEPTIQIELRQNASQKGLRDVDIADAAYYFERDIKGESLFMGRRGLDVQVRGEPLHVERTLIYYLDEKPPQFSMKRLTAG
Put plainly: SPR, Carterra LSA; antibody captured on anti-human IgG, antigen injected.

For assay [5], the target named is T5, human EpCAM (purified recombinant antigen, Acro Biosystems Cat #EPM-H5223) (human, UniProt P16422 24-265).
T5 construct: Bought recombinant protein
T5 sequence: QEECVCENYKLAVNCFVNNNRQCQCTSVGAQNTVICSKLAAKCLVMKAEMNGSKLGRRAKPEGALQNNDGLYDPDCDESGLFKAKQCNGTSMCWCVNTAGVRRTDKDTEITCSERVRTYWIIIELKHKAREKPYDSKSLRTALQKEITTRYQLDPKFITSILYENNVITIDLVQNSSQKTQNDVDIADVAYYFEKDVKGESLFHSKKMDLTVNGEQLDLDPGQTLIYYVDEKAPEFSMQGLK
The description is as above.

For assay [6], the target named is T3, human TROP2 (purified recombinant …). The experiment in a line: MSD assay: biotinylated TROP2 on streptavidin plate, antibody titrated, anti-human SULFO-TAG detection.
The target is the same in assay [7]. Put plainly: SPR, Carterra LSA; antibody captured on anti-human IgG, antigen injected; 1:1 fit. The source holds these as a separate data set.
Assay [8] deals with T1, human Trop2 on cells (FaDu cells, …). Put plainly: flow cytometry on ExpiCHO cells overexpressing human Trop2, percent of cells bound. (Flow cytometry measures light scatter and fluorescence of single cells or particles in a stream.)
Assay [9] has as its target T4, mouse TROP2 (purified recombinant …). The experiment in a line: SPR, Carterra LSA; antibody captured on anti-human IgG, antigen injected; 1:1 fit.
Assay [10] shares this target. Put plainly: SPR, Carterra LSA; ratio of KD values, reference huTROP2.
Assay [11] addresses T6, mouse Trop2 on ExpiCHO cells overexpressing mouse Trop2 (mouse, UniProt Q8BGV3 25-317).
T6 construct: Cell-surface form
T6 sequence: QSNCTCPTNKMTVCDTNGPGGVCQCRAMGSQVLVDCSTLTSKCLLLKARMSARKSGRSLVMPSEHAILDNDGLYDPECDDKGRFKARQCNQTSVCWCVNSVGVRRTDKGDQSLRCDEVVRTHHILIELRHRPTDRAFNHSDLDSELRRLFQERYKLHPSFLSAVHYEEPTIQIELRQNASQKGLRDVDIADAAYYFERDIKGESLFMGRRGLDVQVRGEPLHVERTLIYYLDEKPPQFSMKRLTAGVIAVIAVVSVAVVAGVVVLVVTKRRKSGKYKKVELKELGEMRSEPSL
Put plainly: flow cytometry on ExpiCHO cells overexpressing mouse Trop2, percent of cells bound.

B1: SD-661765 (antibody, V domains shown)
VH: QVQLVETGGDLVKPGGSLKLSCAASGFTFSTYGMSWVRQTPDKRLEWVATISSGGIYTYYSDSVKGRFTISRDNAKNTLYLQMSSLKSEDTAMYYCARDGNYLGFDFWGQGTTLTVSS
VL: DIVMTQSPASLAVSLGQRATISCRASESVESYGNSFMNWYQQKPGQPPKLLIYRASNLESGIPARFSGSGSRTDFTLTINPVEADDVATYYCQQSYEDPRTFGGGTKLEIK
notes: Mouse/human chimera
For B1, the EC50 in assay [1] amounted to 1.07 nM. Besides, the Kd in [2] turned out to be 1.82 nM; in assay [3] it was 1.65 nM; in assay [7] it was 1.65 nM. In addition, the binding result in assay [4] and in assay [5] was “no binding (tested: 1 µM top concentration)” in each case. For the same molecule, the “EC50 (read off the curve)” value in assay [6] was ~0.2 nM. In assay [7], the koff worked out at 0.000574 s⁻¹. Moreover, the kon in assay [7] came to 348000 M⁻¹ s⁻¹.

B2: SD-175533 (antibody, V domains shown)
VH: QIQLQESGPGLMKPSQSLSLTCTVTGYSITSDYAWNWIRQFPGNKLEWMGHITYSGSTSYNPSLKSRISISRDTSKNQFFLQLNSVTTGDTATYYCARGGSTLISGDFDYWGQGTTLTVSS
VL: DIVLTQSHKFMSTSVGDRVSITCKASQDVSTAVAWYQQKPGQSPKLLIYSASYRYTGVPDRFTGSGSGTDFTFTISSVQAEDLAVYYCQQHYSTPLTFGAGTKLELK
notes: Mouse/human chimera
B2 gave a concentration for a half-maximal effect (EC50) in assay [1] of 2.36 nM. The Kd is 0.1 nM in assay [2], 0.2 nM in [3] and 0.2 nM in assay [7]. For the same molecule, the binding result in assay [4] and in assay [5] was “no binding (tested: 1 µM top concentration)” each time. Moreover, the “EC50 (read off the curve)” value in [6] is ~0.3 nM. Besides, the koff in assay [7] came to 3.96e-05 s⁻¹. In addition, the kon in assay [7] came out at 197000 M⁻¹ s⁻¹.

B3: SD-813149 (antibody, V domains shown)
VH: EVKLDESGGGLVKPGGSLKLSCAASGFTFSSYTMSWVRQTPEKRLEWVATINSDGIYTYYPDSVKGRFTISRDNAKNTLYLQMSSLKSEDTAMYYCTRVHYYGYDAMDYWGQGTSVTVSS
VL: EIQMTQSPASLSASVGETVTITCRASENIYSYLAWYQQKQGKSPQLLVYSAKTLAEGVPSRFSGSGSGTHFSLKINSLQPEDFGSYYCQHHYGIPLTFGAGTKLELK
notes: Mouse/human chimera
Regarding B3, it took 2.19 nM to reach a half-maximal effect in [1] (EC50). The Kd is 0.38 nM in assay [2], 0.43 nM in assay [3] and 0.43 nM in assay [7]. In addition, the binding result in [4] and in [5] was “no binding (tested: 1 µM top concentration)” in each case. For the same molecule, the “EC50 (read off the curve)” value in [6] was ~0.2 nM. Moreover, in assay [7], the koff was found to be 0.000163 s⁻¹. Besides, the kon in assay [7] is 377000 M⁻¹ s⁻¹.

B4: SD-802432 (antibody, V domains shown)
VH: AVTLDESGGGLQTPGGGLSLVCKASGFDFIDYDMFWVRQAPGKGLEWVAVINRSGSYTNYAPAVKGRATISRDNGQSTLRLQLNNLRAEDTGTYYCARGACTHCWDADSAGYIDTWGHGTEVIVSS
VL: ALALTQPSSVSANPGETVKITCSGGSGSYGWFQQKSPGIAPVIVIFNDDNRPSDIPSRFSGSKSGSTGTLTITGVQAEDEAVYFCGGYDGSTDAGIFGAGTTLTVL
notes: Chicken/human chimera
Consider B4, for which the “EC50 (read off the curve)” value is ~0.02 nM in assay [8], ~0.2 nM in assay [6] and ~0.02 nM in assay [11]. The molecule also registered an EC50 in assay [1] of 0.738 nM. The Kd in [9] was 0.3 nM; in assay [2], 0.13 nM; in assay [3], 0.1 nM; in assay [7] it was 0.1 nM. Also, the “Fold difference in affinity (huTROP2:msTROP2)” value in assay [10] is 2.9 fold. The binding result in [5] is given as “no binding (tested: 1 µM top concentration)”. The koff in [7] was 5.53e-05 s⁻¹. In [7], the kon stood at 542000 M⁻¹ s⁻¹.
